Experimental data from article PMC4470507.

Experiments:
[1] = target: PfCCT MΔK^R681H, R681H point mutant of the second catalytic domain construct of Plasmodium falciparum CTP:phosphocholine cytidylyltransferase (528–795, Δ720–737) (Plasmodium falciparum); test: native MS; native electrospray, QTOF, positive ion mode; 5 mM NH4HCO3 pH 7.2; gel filtered protein at 0.4 μM monomer concentration; source temperature 80°C; dimer to monomers; 3 samples from different expressions
[2] = target: PfCCT MΔK^WT, second catalytic domain construct of Plasmodium falciparum CTP:phosphocholine cytidylyltransferase (528–795, Δ720–737) (Plasmodium falciparum); test: as above

## PfCCT MΔK^R681H, R681H point mutant of the second catalytic domain construct of Plasmodium falciparum CTP:phosphocholine cytidylyltransferase (528–795, Δ720–737) (domain or fragment)
[1]
  fold decrease of the dimer:monomer abundance ratio against PfCCT MΔK^WT: 20 times lower

## PfCCT MΔK^WT, second catalytic domain construct of Plasmodium falciparum CTP:phosphocholine cytidylyltransferase (528–795, Δ720–737) (domain or fragment)
[2]
  stoichiometry N: 2
